Test results published in patent US20080220446A1, “Method for Detecting and/or Removing Protein and/or Peptide Comprising a Cross-Beta Structure From an Aqueous Solution Comprising a Protein” (priority 2005, published 2008).

Molecular target: endostatin (EntreMed, Inc.) (UniProt P39060)
Experiment: SPR (Biacore), Fn F4-5-His6 immobilized, endostatin at 0-800 nM, maximum RU against concentration

Chain of endostatin (EntreMed, Inc.) (P39060 1572-1754): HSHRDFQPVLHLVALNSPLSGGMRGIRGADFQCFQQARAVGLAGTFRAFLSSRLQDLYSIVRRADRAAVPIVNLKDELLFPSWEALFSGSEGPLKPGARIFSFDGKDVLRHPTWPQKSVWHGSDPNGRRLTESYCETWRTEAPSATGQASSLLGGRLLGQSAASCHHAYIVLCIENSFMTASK

“Fn F4-5-His6 (fibronectin type I domains 4-5, expressed in S. cerevisiae) (from UniProt P02751 182-276)” was tested, and the concentration of ligand that results in half maximum binding was 800 nM.
